Measurements as given in publication PMC11573500.
Several values for one entry are separate records, joined by “and”; a condition that tells them apart may be missing. Equal entries are not always repeated.

Assays:
[1] = target: dephosphorylated wild-type human CFTR (human) (UniProt P13569); assay: cryo-EM structure; 30 uM dephosphorylated wild-type CFTR in digitonin, 250 uM bPKA-C, 2 mM AMP-PNP/Mg2+; 200 mM NaCl, 20 mM HEPES pH 7.4, 1 mM DTT
[2] = target: CFTR D58A expressed in Xenopus laevis oocytes (human) (UniProt P13569)
[3] = target: CFTR D47A expressed in Xenopus laevis oocytes (human) (UniProt P13569)
[4] = target: CFTR E51A expressed in Xenopus laevis oocytes (human) (UniProt P13569)
[5] = target: phosphorylated human CFTR E1371Q (human) (UniProt P13569); assay: cryo-EM structure; phosphorylated E1371Q CFTR (~5 mg/mL) in digitonin with PKA-C (~10 mg/mL), 3 mM ATP/Mg2+; 200 mM NaCl, 20 mM HEPES pH 7.4, 1 mM DTT
[6] = target: dephosphorylated human CFTR E1371Q (human) (UniProt P13569); assay: cryo-EM structure; 30 uM dephosphorylated E1371Q CFTR in digitonin, 250 uM bovine PKA-C, 1 mM P-ATP/Mg2+ and 1 mM AMP-PNP/Mg2+; 200 mM NaCl, 20 mM HEPES pH 7.4, 1 mM DTT
[7] = target: WT CFTR expressed in Xenopus laevis oocytes (human) (UniProt P13569)

stoichiometry N (PKA-C per CFTR) [1] | half-time (t1/2) of macroscopic current activation by 300 nM bPKA-C in 2 mM ATP, relative to WT CFTR [2] | half-time (t1/2) of macroscopic current activation by 300 nM bPKA-C in 2 mM ATP, relative to WT CFTR [3] | half-time (t1/2) of macroscopic current activation by 300 nM bPKA-C in 2 mM ATP, relative to WT CFTR [4] | stoichiometry N (PKA-C per CFTR) [5] | stoichiometry N (PKA-C per CFTR) [6] | half-time (t1/2) of current activation by 300 nM rPKA-C in 2 mM ATP, relative to 300 nM bPKA-C on WT CFTR [7] | Substance
1 and 2 | 2 fold | 2 fold | 2 fold | 1 | 1 | – | protein kinase A catalytic subunit purified from bovine heart (from UniProt P00517 1-351) (enzyme)
– | – | – | – | – | – | 6 fold | recombinant bovine PKA-C, wild type (from UniProt P00517 1-351) (enzyme)
